In US20240226308A1, “DOSING REGIMENS OF PEPTIDE CONJUGATES OF TOPOISOMERASE I INHIBITORS” (CYBREXA 2, INC., priority 2021, published 2024):
“Also recorded” adds a separate entry of the source. Like-named read-outs stand apart in the source and are kept apart here.

Assays:
[1] = Phase 1/2 study of Compound 1: safety and tolerability (adverse events, NCI CTCAE v5.0); format: in vivo, human
From the text: (§1) This is a first-in-human, Phase 1/2 open-label, multicenter, dose-escalation, safety, pharmacokinetics (PK), and biomarker study of Compound 1 in subjects with advanced or metastatic refractory solid tumors.
• To determine the safety and tolerability, maximum tolerated doses (MTDs) and dose limiting toxicities (DLTs) of Compound 1 in subjects with advanced or metastatic refractory solid tumors when administered on the following schedules: • Daily×5 every 3 weeks (Part A) • Daily×3 every 3 weeks (Part B) • To establish the Recommended Phase 2 Dose (RP2D) of Compound 1 for each schedule
(§2) The subject will receive treatment with Compound 1 and be monitored for safety and disease status by AE assessment, physical examination, laboratory tests, radiologic assessment, and ECG. PK and biomarker samples will be collected. All AEs and serious adverse events (SAEs) will be assessed using the National Cancer Institute Common Terminology Criteria for Adverse Events (NCI CTCAE) v5.0. Disease assessments by computed tomography (CT) or magnetic resonance imaging (MRI) will be conducted at protocol-specific intervals. Subjects may continue treatment as long as they are tolerating treatment without disease progression based on RECIST 1.1.
DLTs will be assessed for all subjects enrolled in Phase I through their initial 3-week cycle of treatment (Cycle 1, the DLT period). Any AE occurring during the DLT period deemed at least possibly related to Compound 1 and meeting the criteria below will be designated a DLT. […] This will, however, be considered in the SRC's subsequent dose-level recommendations.
(§3) Compound 1 was administered as a 1-hour IV infusion. As set forth above, the first patient on study was treated with a starting dose of 0.25 mg/kg, which was dosed daily five times a week every 3 weeks (Schedule A). Initially. an accelerated dose tritation was utilized, wherein single patient cohorts were accrued and the dose was escalated up to 100% for each new cohort until the occurrence of Grade 2 or greater treatment-related adverse events (TRAEs). A single patient was accrued to Cohort A1 (0.25 mg/kg). The dose was doubled to 0.5 mg/kg for Cohort A2, and 3 patients were accrued to this cohort due to the occurrence of greater than Grade 2 level adverse events.
Schedule B: once daily three times per week every three weeks, on a mg/m^2 basis (in other words, the dosage was calculated based on the patient's body surface area)
Schedule C: once weekly on a mg/m^2 basis. Patients treated on this schedule received a sentinel dose on Day -14 followed by 2 weeks of no treatment to evaluate the full PK profile of Compound 1 and exatecan. Once weekly dosing started Cycle 1 Day 1.

[2] = Phase 1/2 study of Compound 1: pharmacokinetics; format: in vivo, human; settings: for half-life: in vivo
From the text: as §1
• To determine the pharmacokinetics (PK) of Compound 1 • To evaluate the preliminary anti-tumor activity of Compound 1 based on Response Evaluation Criteria in Solid Tumors (RECIST) 1.1 as follows: • Objective response rate (ORR) • Duration of response (DoR) • Progression-free survival (PFS)
as §2, §3

[3] = Subject 1-5, Ovarian, prior TOP1 inhibitor Yes, Cohort B1 20 mg/m^2, Schedule B: Daily x 3 Every 3 Weeks
[4] = Subject 1-8, Pancreas, prior TOP1 inhibitor Yes, Cohort C1 20 mg/m^2, Schedule C: Once Weekly
[5] = Subject 1-9, Colorectal, prior TOP1 inhibitor Yes, Cohort B3 45 mg/m^2, Schedule B: Daily x 3 Every 3 Weeks
[6] = Subject 2-4, Appendiceal, prior TOP1 inhibitor Yes, Cohort B2 30 mg/m^2, Schedule B: Daily x 3 Every 3 Weeks
[7] = Subject 2-6, Breast, prior TOP1 inhibitor No, Cohort B2 30 mg/m^2, Schedule B: Daily x 3 Every 3 Weeks
[8] = Subject 2-12, Breast, prior TOP1 inhibitor No, Cohort B4 60 mg/m^2, Schedule B: Daily x 3 Every 3 Weeks
[9] = Subject 3-1, Colorectal, prior TOP1 inhibitor Yes, Cohort B3 45 mg/m^2, Schedule B: Daily x 3 Every 3 Weeks
[10] = Subject 5-2, Colorectal, prior TOP1 inhibitor Yes, Cohort B4 60 mg/m^2, Schedule B: Daily x 3 Every 3 Weeks

CC[C@@]1(O)C(=O)OCc2c1cc1n(c2=O)Cc2c-1nc1cc(F)c(C)c3c1c2[C@@H](NC(=O)O[C@H]1CCCC[C@@H]1SSC[C@H](NC(=O)[C@H](Cc1c[nH]c2ccccc12)NC(=O)[C@H](CC(C)C)NC(=O)[C@H](CC(C)C)NC(=O)[C@H](CC(=O)O)NC(=O)[C@H](CC(C)C)NC(=O)[C@H](CC(C)C)NC(=O)[C@H](CC(C)C)NC(=O)[C@@H](NC(=O)[C@H](CC(=O)O)NC(=O)[C@@H](NC(=O)[C@@H]1CCCN1C(=O)[C@H](Cc1ccccc1)NC(=O)[C@H](CC(C)C)NC(=O)[C@H](CC(C)C)NC(=O)[C@H](CC(=O)O)NC(=O)[C@H](CC(C)C)NC(=O)[C@H](Cc1ccc(O)cc1)NC(=O)[C@H](C)NC(=O)[C@H](CCCNC(=N)N)NC(=O)[C@H](Cc1c[nH]c2ccccc12)NC(=O)[C@@H]1CCCN1C(=O)[C@H](CC(N)=O)NC(=O)[C@H](CCC(N)=O)NC(=O)[C@H](CC(=O)O)NC(=O)[C@H](CC(=O)O)NC(=O)[C@H](C)N)[C@@H](C)O)[C@@H](C)O)C(=O)NCC(=O)O)CC3 [Compound 1]
adverse events, Grade level ([1]; Cohort A2, 0.5 mg/kg, Schedule A, 3 patients): > 2
Treatment-Related Adverse Events, Gr 1 [1, 3]: Gr 1: Fatigue
Treatment-Related Adverse Events, Gr 2 [1, 3]: Dehydration
Treatment-Related Adverse Events ([1]; Subject 1-6, Testicular, prior TOP1 inhibitor No, Cohort B1 20 mg/m^2, Schedule B: Daily x 3 Every 3 Weeks): No TRAEs
Treatment-Related Adverse Events, Gr 2 ([1]; Subject 1-7, Esophageal/GEJ (baseline Hgb 9.4), Cohort B1 20 mg/m^2, Schedule B: Daily x 3 Every 3 Weeks): Gr 2: Anemia
Treatment-Related Adverse Events, Gr 1 ([1]; Subject 1-7, Esophageal/GEJ, prior TOP1 inhibitor No, Cohort B1 20 mg/m^2, Schedule B: Daily x 3 Every 3 Weeks): Gr 1: Fatigue,
Treatment-Related Adverse Events, Gr 1 [1, 4]: Gr 1: Vomiting
Treatment-Related Adverse Events, Gr 2 [1, 4]: Gr 2: Nausea
Treatment-Related Adverse Events, Gr 1 [1, 5]: Gr 1: Vomiting,; also recorded: diarrhea
Treatment-Related Adverse Events, Gr 2 [1, 5]: Gr 2: Nausea
Treatment-Related Adverse Events, Gr 3 ([1]; Subject 1-9, Colorectal, AST/ALT elevation resolved to Gr 1 in 2-3 days, Cohort B3 45 mg/m^2, Schedule B: Daily x 3 Every 3 Weeks): anemia
Treatment-Related Adverse Events ([1]; Subject 2-1, Pancreas, prior TOP1 inhibitor Yes, Cohort C1 20 mg/m^2, Schedule C: Once Weekly): No TRAES
Treatment-Related Adverse Events ([1]; Subject 2-2, Colon, prior TOP1 inhibitor Yes, Cohort C1 20 mg/m^2, Schedule C: Once Weekly, off treatment after PK period): No TRAEs
Treatment-Related Adverse Events, Gr 2 ([1]; Subject 2-3, Ovarian, prior TOP1 inhibitor No, Cohort C1 20 mg/m^2, Schedule C: Once Weekly): Gr 2: Fatigue
Treatment-Related Adverse Events, Gr 1 [1, 6]: Gr 1: Anemia
Treatment-Related Adverse Events, Gr 2 [1, 6]: Gr 2: Nausea,; also recorded: vomiting
Treatment-Related Adverse Events, Gr 3 ([1]; Subject 2-5, Breast, prior TOP1 inhibitor Yes (C4D11), Cohort B2 30 mg/m^2, Schedule B: Daily x 3 Every 3 Weeks): Neutropenia
Treatment-Related Adverse Events, Gr 1 [1, 7]: Gr 1: Fatigue,; also recorded: nausea
Treatment-Related Adverse Events, Gr 2 [1, 7]: Neutropenia,; also recorded: WBC decrease
Treatment-Related Adverse Events ([1]; Subject 2-8, Osteosarcoma, prior TOP1 inhibitor Unknown, Cohort B3 45 mg/m^2, Schedule B: Daily x 3 Every 3 Weeks, removed from study on C1D2): No TRAEs
Treatment-Related Adverse Events ([1]; Subject 2-9, Breast, prior TOP1 inhibitor No, Cohort C1 20 mg/m^2, Schedule C: Once Weekly): No TRAEs
Treatment-Related Adverse Events, Gr 2 ([1]; Subject 2-11, Ovarian (C1D1 Hgb = 10.3), Cohort B3 45 mg/m^2, Schedule B: Daily x 3 Every 3 Weeks): Gr 2: Anemia
Treatment-Related Adverse Events, Gr 3 ([1]; Subject 2-11, Ovarian (resolved in 2 days), Cohort B3 45 mg/m^2, Schedule B: Daily x 3 Every 3 Weeks): Neutropenia
Treatment-Related Adverse Events, Gr 1 ([1]; Subject 2-11, Ovarian, prior TOP1 inhibitor No, Cohort B3 45 mg/m^2, Schedule B: Daily x 3 Every 3 Weeks): Gr 1: Nausea,; also recorded: lipase increase,; also recorded: alopecia
Treatment-Related Adverse Events, Gr 1 [1, 8]: Gr 1: Vomiting
Treatment-Related Adverse Events, Gr 2 [1, 8]: Gr 2: Colitis
Treatment-Related Adverse Events, Gr 4 [1, 8]: Neutropenia,; also recorded: thrombocytopenia
Treatment-Related Adverse Events, Gr 1 [1, 9]: Gr 1: Headache
Treatment-Related Adverse Events, Gr 2 [1, 9]: Gr 2: Nausea,; also recorded: WBC decrease,; also recorded: ANC decrease,; also recorded: diarrhea
Treatment-Related Adverse Events, Gr 2 [1, 10]: Gr2: Vomiting,; also recorded: dehydration
Treatment-Related Adverse Events, Gr 3 [1, 10]: anemia
Treatment-Related Adverse Events, Gr 4 [1, 10]: Neutropenia,; also recorded: thrombocytopenia
accumulation ([2]; five consecutive days of dosing, Schedule A): significant accumulation
half-life ([2]; human, initial four patients, Schedule A (daily five times a week every 3 weeks), 0.25-0.5 mg/kg, 1-hour IV infusion, read-out: half-life of Compound 1 (converted)): ~20 h
half-life ([2]; prediction made before the study, read-out: predicted half-life (converted)): ~8 h
